Reference: patent US20210347908A1 (ELPISCIENCE SUZHOU BIOPHARMA, published 2021)
Where two headings read alike, the source gives them in different places. Values belong to the binder of their own block, whether it stands above or below them.

How the values were obtained:
[1] = target: T1, full length human SIRPα v1 stably expressed on CHOK1 cells (human, UniProt P78324 31-504); test: FACS on CHOK1 cells
T1 construct: whole, on cells; also called CHOK1-human SIRPα v1-1B4 cells; CHOK1-human SIRPα v1
T1 sequence (P78324 31-504): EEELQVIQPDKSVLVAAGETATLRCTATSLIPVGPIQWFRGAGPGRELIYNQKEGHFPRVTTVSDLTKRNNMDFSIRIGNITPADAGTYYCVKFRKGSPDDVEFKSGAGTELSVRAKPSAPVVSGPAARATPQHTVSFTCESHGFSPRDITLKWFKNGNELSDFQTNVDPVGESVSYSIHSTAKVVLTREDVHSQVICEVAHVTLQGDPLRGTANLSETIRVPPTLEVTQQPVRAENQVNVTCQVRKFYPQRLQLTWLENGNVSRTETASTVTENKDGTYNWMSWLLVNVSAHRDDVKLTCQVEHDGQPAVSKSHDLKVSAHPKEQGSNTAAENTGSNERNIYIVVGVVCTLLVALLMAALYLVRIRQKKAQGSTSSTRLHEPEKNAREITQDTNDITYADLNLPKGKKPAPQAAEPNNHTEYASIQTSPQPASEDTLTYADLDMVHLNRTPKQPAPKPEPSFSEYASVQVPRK
Description: (§1) Species cross reactivity of the purified hybridoma antibodies against human, cyno and mouse SIRPα was determined by FACS assay using CHOK1-human SIRPα v1-1B4 cells, CHOK1-cyno SIRPα-2A2 cells, and CHOK1-C57BL/6 mouse SIRPα-2.22 cells, which stably expressing SIRPα protein. Briefly the antibodies were incubated with 2×10⁵ target cells at 4° C. for 1 hour. After washing, fluorescence labeled anti-mouse or anti-human IgG 2nd antibody (Life Technologies) was added and incubated at 4° C. for 1 hour. Geometric median fluorescence intensity was detected and EC₅₀ was calculated. In particular, it is noted, in contrast to the other antibodies tested in the same experiment, 060 cannot bind with cyno SIRPα and 035 has cross reactivity against C57BL/6 mouse SIRPα.

[2] = target: T1, full length human SIRPα v1 stably …; test: FACS on CHOK1 cells; remark: listed apart in the source
Description: as §1, with “SIRPα. […]” for “SIRPα.”

[3] = target: T2, Fc tagged human SIRPα v1 ECD recombinant protein (human, UniProt P78324 31-370); test: ELISA
T2 construct: range 1-370; cloned range M1-R370 includes the signal peptide; also called hSIRPα V1; not shown: human IgG Fc region (hFc) of the pCPC vector
T2 sequence (P78324 31-370 limits assumed): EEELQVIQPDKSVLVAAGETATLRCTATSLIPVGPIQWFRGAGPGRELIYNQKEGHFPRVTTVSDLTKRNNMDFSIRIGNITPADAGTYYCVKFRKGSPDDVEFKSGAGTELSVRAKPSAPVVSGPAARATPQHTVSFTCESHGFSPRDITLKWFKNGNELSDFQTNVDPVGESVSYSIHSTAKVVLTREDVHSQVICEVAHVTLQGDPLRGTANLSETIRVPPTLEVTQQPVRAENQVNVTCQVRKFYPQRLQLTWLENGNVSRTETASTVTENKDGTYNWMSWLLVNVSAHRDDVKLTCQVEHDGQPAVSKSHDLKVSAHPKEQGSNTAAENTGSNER
Description: (§2) Binding specificity of the purified hybridoma antibodies against SIRP family members was detected by ELISA assay using recombinant proteins of Fc tagged human SIRPα v1 ECD, human SIRPα v2 ECD, human SIRPβ ECD and human SIRPγ ECD. Briefly the antibodies were incubated with ELISA microplate coated antigens at 37° C. for 1 hour. After washing, horseradish peroxidase (HRP) labeled anti-mouse or anti-human IgG 2nd Ab (Sigma) was added and incubated at 37° C. for 1 hour. Then, 100 μl/well of TMB solution (Biotechnology) was added. After incubation for 15 minutes at room temperature, the reaction was stopped by the addition of 50 μl of 1N HCl. OD 450 nm was read and EC₅₀ was calculated. Other than 060 and HEFLB, all of the antibodies as tested can bind with both human SIRPα v1 and SIRPα v2. 060 and HEFLB can bind with human SIRPα v1 but not v2. Other than 055, all of the antibodies as tested can bind with human SIRPβ. In comparison with other known anti-SIRPα antibodies, only 022, 035 and 050 can bind with human SIRPγ weakly.
(§3) The purified chimeric antibodies were applied for binding specificity analysis and species cross reactivity analysis (refer to methods described in Example 3.3 and 3.4). FIGS. 1A to 1D show binding specificity of anti-SIRPα chimeric antibodies against recombinant proteins of human SIRPα v1 ECD (A), human SIRPα v2 ECD (B), human SIRPβ ECD (C) and human SIRPγ ECD (D) as measured by ELISA analysis.

[4] = target: T2, Fc tagged human SIRPα v1 ECD …; test: ELISA; remark: listed apart in the source
Description: as §2, §3

[5] = target: T3, full length C57BL/6 mouse SIRPα stably expressed on CHOK1 cells (mouse (C57BL/6), UniProt P97797 32-513); test: FACS on CHOK1 cells
T3 construct: whole, on cells; also called CHOK1-C57BL/6 mouse SIRPα-2.22 cells
T3 sequence (looked up): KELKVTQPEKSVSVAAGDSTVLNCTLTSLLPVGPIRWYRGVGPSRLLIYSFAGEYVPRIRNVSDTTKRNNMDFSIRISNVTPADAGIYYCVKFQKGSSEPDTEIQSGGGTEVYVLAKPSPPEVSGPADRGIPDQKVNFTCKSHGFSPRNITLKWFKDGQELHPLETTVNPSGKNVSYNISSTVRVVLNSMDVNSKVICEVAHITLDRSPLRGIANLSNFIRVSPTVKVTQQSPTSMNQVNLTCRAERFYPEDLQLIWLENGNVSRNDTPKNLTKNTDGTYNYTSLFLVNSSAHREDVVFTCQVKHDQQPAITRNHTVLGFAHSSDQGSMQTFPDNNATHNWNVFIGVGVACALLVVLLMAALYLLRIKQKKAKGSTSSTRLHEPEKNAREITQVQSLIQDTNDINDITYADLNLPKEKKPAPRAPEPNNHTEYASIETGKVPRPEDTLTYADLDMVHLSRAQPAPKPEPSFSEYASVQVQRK
Description: as §1, §3

[6] = target: T1, full length human SIRPα v1 stably …; test: FACS on CHOK1 cells; remark: listed apart in the source
Description: as §1, §3

[7] = target: T4, full length cyno SIRPα stably expressed on CHOK1 cells (cynomolgus monkey, UniProt A0A2K5VYQ9 31-507); test: FACS on CHOK1 cells
T4 construct: whole, on cells; also called CHOK1-cyno SIRPα-2A2 cells; CHOK1-cyno SIRPα
T4 sequence: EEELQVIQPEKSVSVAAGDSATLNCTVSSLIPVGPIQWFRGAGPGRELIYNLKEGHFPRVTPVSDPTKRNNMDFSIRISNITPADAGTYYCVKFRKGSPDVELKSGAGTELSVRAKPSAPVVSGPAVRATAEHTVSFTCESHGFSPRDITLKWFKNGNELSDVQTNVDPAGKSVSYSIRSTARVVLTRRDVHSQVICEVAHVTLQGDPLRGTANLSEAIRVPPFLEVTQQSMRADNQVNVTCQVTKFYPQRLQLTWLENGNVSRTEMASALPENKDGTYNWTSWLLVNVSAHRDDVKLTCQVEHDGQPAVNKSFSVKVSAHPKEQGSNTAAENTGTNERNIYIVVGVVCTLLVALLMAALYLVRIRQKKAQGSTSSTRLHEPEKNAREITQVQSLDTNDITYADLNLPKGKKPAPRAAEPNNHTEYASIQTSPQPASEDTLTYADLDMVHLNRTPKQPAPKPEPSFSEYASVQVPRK
Description: as §1, §3

B1: Antibody 035 (hybridoma antibody) (antibody, V domains shown)
VH: QIQLVQSGPELRKPGETVKISCKASGYSFTNYAMNWVKQAPGKVLKWMGFINTYTGEPTYADDFKGRFAFSLETSASTAYLQINNLKNEDTATYFCTRTRGYYDFDGGAFDYWGQGTSLTVSS
VL: DIVMTQSQKFMSTSIGDRVSVTCKASQNVGTHLAWYQQKPGQSPKALIFSASYRYIGVPDRFTGSGSGTDFTLTITNVQSEDLAEYFCQQYNTYPLTFGAGTKLELK
notes: mouse hybridoma antibody
- EC50 [1]: 0.7 nM

B4: Antibody 022 (hybridoma antibody) (antibody, V domains shown)
VH: QIQLVQSGPELKKPGETVKISCKASGYTFTDYAMHWVKQAPGKGLKWMGWKNTETGESTYAEDFKGRFAFFLETSASTAYLQINNVKNEDTATYFCARGGYGSNYVMDYWGQGTSVIVSS
VL: DIQMTQSSSSFSVSLGDRVTITCKASEDIYNRLAWYQQKPGNAPRLLISGATSLETGVPSRFSGSGSGKDYTLSITSLQTEDVATYYCQQYWNSPRTFGGGTKLEIK
notes: mouse hybridoma antibody
- EC50 [1]: 2.1 nM

B6: Antibody 050 (hybridoma antibody) (antibody, V domains shown)
VH: QIQLVQSGPELKKPGETVKISCKASGYTFTHYSMHWVKQAPGKGLKWMGWINTETAEPTYVDDFKGRFAFSLEASASTAFFQINNLKNEDTATYFCARGGLRQGDYWGQGTTLTVSS
VL: QIVLTQSPPIMSASPGEKVTLTCSATSSVSASYLYWFQQKPGSSPKLWIYSTSNLASGVPARFSGSGSGTSYSLTISNMEPADAASYFCHQWSSYPYTFGGGTKLEIK
notes: mouse hybridoma antibody
- EC50 [1]: 1.3 nM

B9: Antibody 001 (hybridoma antibody) (antibody, V domains shown)
VH: EVKLEESGGGLVQPGGSMKLSCVASGFTFRNYWMNWVRQSPERGLEWIAEISLKSNTYATHYAESVKGRFAISRDGSKSSFYLQMNDLRAEDTGIYYCTTFTKVVADWHLDVWGAGTTVTVSS
VL: DVLMTQTPLSLPVSLGDQASISCRSSQNIVHSNGNTYLEWYLQKPGQSPKLLIYKVSNRFSGVPDRFSGSGSGTDFTLRISRVEAEDLGVYYCFQGSHVPFTFGSGTKLEIK
notes: mouse hybridoma antibody
- EC50 [1]: 1 nM

B10: Antibody 002 (hybridoma antibody) (antibody, V domains shown)
VH: EVKLEESGGGLVQPGGSMILSCVASGFTFRNYWMNWVRQSPERGLEWIAEITLKSNTYATHYAESVKGRFAISRDDSKSSFYLQMNDLRPEDTGIYYCTTFTKVVADWHLDVWGAGTTVTVSS
VL: DVLMTQTPLSLPVSLGDQASISCRSSQNIVHSNGNTYLEWYLQKPGQSPKLLIYKISNRFSGVPDRFSGSGSGTDFTLRISRVEAEDLGVYYCFQGSHVPFTFGSGTKLEIQ
notes: mouse hybridoma antibody
- EC50 [1]: 1 nM

B11: Antibody 032 (hybridoma antibody) (antibody, V domains shown)
VH: EVRLEESGGGLVQPGGSMKLSCVVSGFTFRNYWMNWVRQSPERGLEWIAEITLKSNTYATHYAESVKGRFAISRDDSKSSFYLQMNDLRPEDTGIYYCTTFTKVVADWHLDVWGAGTTVTVSS
VL: DVLMTQTPLSLPVNLGDQASISCRSSQNIVHSNGNTYLEWYLQKPGQSPKLLIYKVSNRFSGVPDRFSGSGSGTDFTLRISRVEAEDLGVYYCFQGSHVPFTFGSGTKLEIK
notes: mouse hybridoma antibody
- EC50 [1]: 0.4 nM

Now from value to binder:

- EC50 [2]: 11.2 nM
- EC50 [3]: 0.11 nM
- EC50 [4]: 0.11 nM
- binding result [5]: no binding (tested: 10 nM)
- EC50 [6]: 11.2 nM
- EC50 [1]: 11.2 nM
B2: reference antibody HEFLB (antibody, V domains shown)
VH: EVQLVQSGAEVKKPGESLRISCKASGYSFTSYWVHWVRQMPGKGLEWMGNIDPSDSDTHYSPSFQGHVTLSVDKSISTAYLQLSSLKASDTAMYYCVRGGTGTLAYFAYWGQGTLVTVSS
VL: DVVMTQSPLSLPVTLGQPASISCRSSQSLVHSYGNTYLYWFQQRPGQSPRLLIYRVSNRFSGVPDRFSGSGSGTDFTLKISRVEAEDVGVYYCFQGTHVPYTFGGGTKVEIK

- EC50 [1]: 0.9 nM
B3: Antibody 060 (hybridoma antibody) (antibody, V domains shown)
VH: QVQLKESGPGLVAPSESLSITCTVSGFSLTNYDISWIRQSPGKGLEWLGVIWTGGDTNFNSAFMSRLSISKDKSKSQVFLKLNSLQTDDTAIYYCVRVQYFGGSYGPMDYWGQGISVTVSS
VL: DIQMTQASSYLSVSLGGRVTITCEASDHINDWLAWYQQTPGNAPRLLISGATSLETGVPSRFSGSGSGKDYTLSITSLQTEDIATYYCQQYWNTPLTFGAGTRLELK
notes: mouse hybridoma antibody

- EC50 [2]: 2.8 nM
- EC50 [3]: 0.1 nM
- EC50 [4]: 0.1 nM
- binding result [5]: no binding (tested: 10 nM)
- EC50 [6]: 2.8 nM
- EC50 [1]: 2.8 nM
B5: reference antibody KWAR23 (antibody, V domains shown)
VH: EVQLQQSGAELVKPGASVKLSCTASGFNIKDYYIHWVQQRTEQGLEWIGRIDPEDGETKYAPKFQDKATITADTSSNTAYLHLSSLTSEDTAVYYCARWGAYWGQGTLVTVSS
VL: QIVLTQSPAIMSASPGEKVTLTCSASSSVSSSYLYWYQQKPGSSPKLWIYSTSNLASGVPARFSGSGSGTSYSLTISSMEAEDAASYFCHQWSSYPRTFGAGTKLELK

- EC50 [1]: 1 nM
B7: Antibody 074 (hybridoma antibody) (antibody, V domains shown)
VH: QVQLQQPRAELVKPGASVMLSCKASGYTFSSYWIHWVRQGPGQGLEWIGLIHPNSGNTDCSETFKNKATLTVDTSSSTAYMQLSSLASEDSAVYYCARDGASYDWFVHWGQGTLVTVSA
VL: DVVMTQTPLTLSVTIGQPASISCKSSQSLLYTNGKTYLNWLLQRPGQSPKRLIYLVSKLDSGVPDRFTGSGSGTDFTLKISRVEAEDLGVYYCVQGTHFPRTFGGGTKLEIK
notes: mouse hybridoma antibody

- EC50 [2]: 1.7 nM
- EC50 [3]: 0.12 nM
- EC50 [4]: 0.12 nM
- MFI at 10 nM [7]: 24900 MFI
- binding result [5]: no binding (tested: 10 nM)
- EC50 [6]: 1.7 nM
B8: chimeric antibody 001c (antibody, V domains shown)
VH: EVKLEESGGGLVQPGGSMKLSCVASGFTFRNYWMNWVRQSPERGLEWIAEISLKSNTYATHYAESVKGRFAISRDGSKSSFYLQMNDLRAEDTGIYYCTTFTKVVADWHLDVWGAGTTVTVSS
VL: DVLMTQTPLSLPVSLGDQASISCRSSQNIVHSNGNTYLEWYLQKPGQSPKLLIYKVSNRFSGVPDRFSGSGSGTDFTLRISRVEAEDLGVYYCFQGSHVPFTFGSGTKLEIK
